Source: patent US6740739B1, “Substitutional variants of APO-2 ligand” (Genentech, Inc., priority 1998, dated 2004)

What was measured:
Test in all cases: Apoptosis by FACS (PI / FITC-annexin V)
Assay type in all cases: cell-based, human
Jurkat cells = details: Apo-2 ligand 3 μg/ml, 24 hours, control 5.9
Protocol: (§1) The effects of the Apo-2 ligand on the 9D cells, as well as on Raji cells (human Burkitt's lymphoma B cell line, ATCC CCL 86) and Jurkat cells (human acute T cell leukemia cell line, ATCC TIB 152) were further analyzed by FACS. The FACS analysis was conducted, using established criteria for apoptotic cell death, namely, the relation of fluorescence staining of the cells with two markers: (a) propidium iodide (“PI”) dye, which stains apoptotic but not live cells, and (b) a fluorescent derivative of the protein, annexin V, which binds to the exposed phosphatidylserine found on the surface of apoptotic cells, but not on live cells [Darzynkiewicz et al., Methods in Cell Biol., 41:15-38 (1994); Fadok et al., J. Immunol., 148:2207-2216 (1992); Koopman et al., Blood, 84:1415-1420 (1994)].
(§2) The 9D cells (FIG. 2B), Raji cells (FIG. 2C), and Jurkat cells (FIG. 2D) were incubated (1×10^6 cells/well) for 24 hours with a media control (left panels), Apo-2 ligand (3 μg/ml, prepared as described in Example 3) (center panels), or anti-Apo-1 ligand antibody, CH11 (1 μg/ml) (right panels). The cells were then washed, stained with PI and with fluorescein thiocyanate (FITC)-conjugatedannexin V (purchased from Brand Applications) and analyzed by flow cytometry. […]

Raji cells = details: Apo-2 ligand 3 μg/ml, 24 hours, control 35.9
Protocol: as §1, §2

9D cells = details: Apo-2 ligand 3 μg/ml, 24 hours, control 22.5
Protocol: Apoptotic activity of purified, soluble Apo-2 ligand (described in Example 3) was examined using several human lymphoid cell lines. In a first study, the effect of Apo-2 ligand on 9D cells (Genentech, Inc.), derived from Epstein-Barrvirus (EBV)-transformed human peripheral blood B cells, was examined. The 9D cells (5×10^4 cells/well in RPMI 1640 medium plus 10% fetal calf serum) were incubated for 24 hours with either a media control, Apo-2 ligand (3 μg/ml, prepared as described in Example 3 above), or anti-Apo-1 monoclonal antibody, CH11 (1 μg/ml) [described by Yonehara et al., J. Exp. Med., 169:1747-1756 (1989); commercially available from Medical and Biological Laboratories Co.]. […]
The effects of the Apo-2 ligand on the 9D cells, as well as on Raji cells (human Burkitt's lymphoma B cell line, ATCC CCL 86) and Jurkat cells (human acute T cell leukemia cell line, ATCC TIB 152) were further analyzed by FACS. […]
as §2

B1: Apo-2L: purified soluble His10-tagged human Apo-2 ligand, residues 114-281, from baculovirus-infected Sf9 cells (Example 3); used in Examples 4-14 (protein)
chain: MGHHHHHHHHHHSSGHIDDDDKHMVRERGPQRVAAHITGTRGRSNTLSSPNSKNEKALGRKINSWESSRSGHSFLSNLHLRNGELVIHEKGFYYIYSQTYFRFQEEIKENTKNDKQMVQYIYKYTSYPDPILLMKSARNSCWSKDAEYGLYSIYQGGIFELKENDRIFVSVTNEHLIDMDHEASFFGAFLVG
With B1 the “% apoptotic cells” value (Jurkat cells) was 77.0%, the “% apoptotic cells” value (Raji cells) was 73.4% and the “% apoptotic cells” value (9D cells) was 92.4%.
